Data on 2 molecules can be found in PMC4908374, “A humanized anti-DLL4 antibody promotes dysfunctional angiogenesis and inhibits breast tumor growth” (Scientific Reports, 2016).

The target in this assay is T1, rhDLL4 (recombinant human Delta-like 4) (Homo sapiens, UniProt Q9NR61).
T1 construct: Delta-like 4 (DLL4), human, recombinant
Description: SPR; Biacore X100; HCLC or H3L2 captured (up to 2,000 RU) by anti-human IgG Fc antibody immobilised on a CM5 chip; rhDLL4 up to 100 nM flowed; 25 °C, 30 μl/min; 1:1 binding model; KD from kd/ka. To be noted: both partners purified.

“And” between values parts separate entries of the source, which are not always exact repeats. Equal values may be shown once.

T1 sequence (Q9NR61 27-685, stated change not applied): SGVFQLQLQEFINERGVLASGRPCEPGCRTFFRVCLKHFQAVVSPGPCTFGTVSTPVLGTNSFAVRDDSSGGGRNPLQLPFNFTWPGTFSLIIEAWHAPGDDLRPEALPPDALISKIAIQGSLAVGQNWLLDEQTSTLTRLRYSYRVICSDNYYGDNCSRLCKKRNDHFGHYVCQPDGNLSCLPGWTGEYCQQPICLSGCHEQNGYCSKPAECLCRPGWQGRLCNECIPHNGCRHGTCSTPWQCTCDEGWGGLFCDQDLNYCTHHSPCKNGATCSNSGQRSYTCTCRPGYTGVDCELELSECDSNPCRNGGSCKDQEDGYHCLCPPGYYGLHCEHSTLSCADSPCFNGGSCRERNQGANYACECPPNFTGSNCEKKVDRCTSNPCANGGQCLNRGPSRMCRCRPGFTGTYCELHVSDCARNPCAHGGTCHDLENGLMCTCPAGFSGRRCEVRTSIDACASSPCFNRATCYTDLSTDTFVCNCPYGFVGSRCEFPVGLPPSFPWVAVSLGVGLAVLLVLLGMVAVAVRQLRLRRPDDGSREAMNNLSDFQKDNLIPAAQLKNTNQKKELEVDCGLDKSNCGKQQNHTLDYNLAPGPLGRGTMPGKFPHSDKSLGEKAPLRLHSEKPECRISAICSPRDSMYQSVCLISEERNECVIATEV

B1: HCLC, murine-human chimeric anti-DLL4 antibody (VH and VL of MMGZ01 on human constant regions) (antibody, V domains shown)
VH: EVQLEESGTELARPGASVKLSCKASGYIFSGYWMQWIKQRPGQGLEWIGAIYPGDGDTRYTQKFKGKATLTADKSSSTAYMQLSSLASEDSAVYYCAGGNFFFDYWGLGTTLAVSS
VL: DIVITQSPALMAASPGEKVTITCSVSSSISSSYLHWYQQKSGISPKPWIYGTSNLASGVPARFSGSGSGTSYSLTITSMEAEDAATYYCQQWSSSPLTFGAGTKLELK
notes: as the VH of m6; as the VL of m6; Full-length IgG1; also called chimeric antibody; source: CHO-s, transiently transfected, in supernatant
Take B1: the dissociation constant (Kd) was 1.14 pM and 1.41 pM; the dissociation rate constant (koff) was found to be 2.42e-05 s⁻¹; the kon was 1.72e+07 M⁻¹ s⁻¹.

B2: H3L2, humanized anti-DLL4 antibody (VH3, VL2) (antibody, V domains shown)
VH: QVQLVQSGAEVKKPGSSVKVSCKASGYTFSGYWMQWIKQAPGQGLEWIGAIYPGDGDTRYTQKFKGRATLTADKSTSTAYMELSSLRSEDTAVYYCAGGNFFFDYWGQGTLVTVSS
VL: EIVITQSPDFQSVTPKEKVTITCSVSSSISSSYLHWYQQKPDQSPKPWIYGTSNLASGVPSRFSGSGSGTDYTLTINSLEAEDAATYYCQQWSSSPLTFGQGTKLEIK
notes: Full-length IgG1; also called humanized antibody; source: CHO-s, transiently transfected, in supernatant
Take B2: the dissociation constant Kd amounted to 2.26 pM, the off-rate constant (koff) is 2.59e-05 s⁻¹ and the kon came to 1.15e+07 M⁻¹ s⁻¹.
